Reference: patent US20220056147A1

B1: RC88 antibody (antibody, human IgG1, kappa, V domains shown)
VH: EVQLVESGGGLVQPGGSLRLSCAASGFDFSRYWMSWVRQAPGKGLEWIGEINPDSSTIVYTPSLKDKFIISRDNAKNTLYLQMNSLRAEDTALYYCARRGSHYYGYRTGYFDVWGAGTTVTVSS
VL: DVVMTQSPAFLSVTPGEKVTMTCSASSSVSYMYWHQQKPDQAPKLLIYDTSNLASGVPVRFSGSGSGTDFTFTISRMEAEDAATYYCQQWSSYPPTFGGGTKVEIKR
B2: RC88-Py-MAA-Val-Cit-PAB-MMAE (antibody, human IgG1, kappa, V domains shown)
VH: B1 VH
VL: B1 VL
modifications: Py-MAA-Val-Cit-PAB-MMAE linker-drug coupled to cysteine thiols of reduced disulfide bonds (bridging linker); positions not given; DAR 3.95

Legend:
[1] = target: human MSLN on Oval-Citar-3-MSLN cells (human) (UniProt Q13421); assay: cell ELISA on fixed Oval-Citar-3-MSLN cells, HRP anti-human IgG Fc detection
[2] = target: human MSLN on Oval-Citar-3-MSLN cells (human) (UniProt Q13421); assay: flow cytometry on fixed Oval-Citar-3-MSLN cells, FITC anti-human IgG Fc detection

Sequence of human MSLN on Oval-Citar-3-MSLN cells (human) (Q13421 other isoform, or with tags, fused parts or gaps limits assumed): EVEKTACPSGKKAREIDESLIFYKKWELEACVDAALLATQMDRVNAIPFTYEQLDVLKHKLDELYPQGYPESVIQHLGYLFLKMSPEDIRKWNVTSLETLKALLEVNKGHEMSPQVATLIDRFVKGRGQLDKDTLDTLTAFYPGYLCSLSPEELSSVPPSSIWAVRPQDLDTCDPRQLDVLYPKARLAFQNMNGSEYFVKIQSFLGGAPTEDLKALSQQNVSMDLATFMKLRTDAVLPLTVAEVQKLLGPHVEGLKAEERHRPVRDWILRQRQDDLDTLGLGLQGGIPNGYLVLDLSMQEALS

Binder	EC50 [1] [µg/mL]	EC50 [2] [µg/mL]
B1	0.011	0.153
B2	0.0197	0.251
